The target of test [1] is T1, human ICOS, full-length, expressed on transfected Expi293 cells (human, UniProt Q9Y6W8 21-199).
T1 construct: whole, on cells
T1 sequence (looked up): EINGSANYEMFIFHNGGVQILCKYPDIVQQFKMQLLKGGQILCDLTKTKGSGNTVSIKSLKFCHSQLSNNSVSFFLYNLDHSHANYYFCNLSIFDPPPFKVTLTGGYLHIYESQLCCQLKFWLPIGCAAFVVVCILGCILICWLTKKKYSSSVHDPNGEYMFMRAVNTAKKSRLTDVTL
Put plainly: flow cytometry, 100 nM, Expi293 cells with human ICOS. For orientation: Flow cytometry measures light scatter and fluorescence of single cells or particles in a stream.

Test [2] addresses T2, human CTLA-4, full-length, expressed on transfected Expi293 cells (human, UniProt P16410 36-223).
T2 construct: whole, on cells
Put plainly: flow cytometry, 100 nM, Expi293 cells with human CTLA-4.

The target in test [3] is T3, human CD28, full-length, expressed on transfected Expi293 cells (human, UniProt P10747 19-220).
T3 construct: whole, on cells
The test can be described thus: flow cytometry, 100 nM, Expi293 cells with human CD28.

T2 sequence (P16410 36-223): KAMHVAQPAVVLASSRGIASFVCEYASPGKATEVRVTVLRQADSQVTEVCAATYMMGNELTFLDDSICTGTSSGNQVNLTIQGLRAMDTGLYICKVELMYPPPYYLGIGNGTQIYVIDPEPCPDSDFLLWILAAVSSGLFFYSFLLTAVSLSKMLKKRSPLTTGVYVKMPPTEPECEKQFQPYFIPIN

B1: variant ICOSL IgV-Fc fusion N52A/N57Y/Q100A (Fc fusion)
chain: DTQEKEVRAMVGSDVELSCACPEGSRFDLNDVYVYWQTSESKTVVTYHIPQASSLEYVDSRYRNRALMSPAGMLRGDFSLRLFNVTPQDEQKFHCLVLSASLGFQEVLSVEVTLHVAANFSVGSGGGGSEPKSSDKTHTCPPCPAPEAEGAPSVFLFPPKPKDTLMISRTPEVTCVVVDVSHEDPEVKFNWYVDGVEVHNAKTKPREEQYNSTYRVVSVLTVLHQDWLNGKEYKCKVSNKALPAPIEKTISKAKGQPREPQVYTLPPSREEMTKNQVSLTCLVKGFYPSDIAVEWESNGQPENNYKTTPPVLDSDGSFFLYSKLTVDKSRWQQGNVFSCSVMHEALHNHYTQKSLSLSPG
Consider B1, for which the MFI was 261000 MFI in test [1], 320000 MFI in test [2] and 147000 MFI in test [3]. In addition, the “MFI ratio to WT (ΔWT)” value in test [1] is 1.23 fold; in test [2], 0.97 fold; in test [3] it was 6.6 fold.

B2: variant ICOSL IgV-Fc fusion N52G/N57V (Fc fusion)
chain: DTQEKEVRAMVGSDVELSCACPEGSRFDLNDVYVYWQTSESKTVVTYHIPQGSSLEVVDSRYRNRALMSPAGMLRGDFSLRLFNVTPQDEQKFHCLVLSQSLGFQEVLSVEVTLHVAANFSVGSGGGGSEPKSSDKTHTCPPCPAPEAEGAPSVFLFPPKPKDTLMISRTPEVTCVVVDVSHEDPEVKFNWYVDGVEVHNAKTKPREEQYNSTYRVVSVLTVLHQDWLNGKEYKCKVSNKALPAPIEKTISKAKGQPREPQVYTLPPSREEMTKNQVSLTCLVKGFYPSDIAVEWESNGQPENNYKTTPPVLDSDGSFFLYSKLTVDKSRWQQGNVFSCSVMHEALHNHYTQKSLSLSPG
Regarding B2, the figures for the MFI in test [1], in test [2] and in test [3] were 332000 MFI, 52500 MFI and 69100 MFI, respectively. The “MFI ratio to WT (ΔWT)” value in test [1] came to 1.57 fold; in test [2], 0.16 fold; in test [3], 3.1 fold.

B3: variant ICOSL IgV-Fc fusion N52P/N57S/Q100G (Fc fusion)
chain: DTQEKEVRAMVGSDVELSCACPEGSRFDLNDVYVYWQTSESKTVVTYHIPQPSSLESVDSRYRNRALMSPAGMLRGDFSLRLFNVTPQDEQKFHCLVLSGSLGFQEVLSVEVTLHVAANFSVGSGGGGSEPKSSDKTHTCPPCPAPEAEGAPSVFLFPPKPKDTLMISRTPEVTCVVVDVSHEDPEVKFNWYVDGVEVHNAKTKPREEQYNSTYRVVSVLTVLHQDWLNGKEYKCKVSNKALPAPIEKTISKAKGQPREPQVYTLPPSREEMTKNQVSLTCLVKGFYPSDIAVEWESNGQPENNYKTTPPVLDSDGSFFLYSKLTVDKSRWQQGNVFSCSVMHEALHNHYTQKSLSLSPG
Regarding B3, the MFI in test [1] worked out at 143000 MFI; in test [2], 5050 MFI; in test [3] it was 6800 MFI. In addition, the “MFI ratio to WT (ΔWT)” value in test [1] stood at 0.68 fold; in test [2], 0.02 fold; in test [3] it was 0.3 fold.

B4: variant ICOSL IgV-Fc fusion N52G/N57V/Q100G (Fc fusion)
chain: DTQEKEVRAMVGSDVELSCACPEGSRFDLNDVYVYWQTSESKTVVTYHIPQGSSLEVVDSRYRNRALMSPAGMLRGDFSLRLFNVTPQDEQKFHCLVLSGSLGFQEVLSVEVTLHVAANFSVGSGGGGSEPKSSDKTHTCPPCPAPEAEGAPSVFLFPPKPKDTLMISRTPEVTCVVVDVSHEDPEVKFNWYVDGVEVHNAKTKPREEQYNSTYRVVSVLTVLHQDWLNGKEYKCKVSNKALPAPIEKTISKAKGQPREPQVYTLPPSREEMTKNQVSLTCLVKGFYPSDIAVEWESNGQPENNYKTTPPVLDSDGSFFLYSKLTVDKSRWQQGNVFSCSVMHEALHNHYTQKSLSLSPG
As for B4, the MFI in test [1] was determined as 260000 MFI; in test [2], 14700 MFI; in test [3] it was 23700 MFI. The figures for the “MFI ratio to WT (ΔWT)” value in test [1], in test [2] and in test [3] were 1.23 fold, 0.04 fold and 1.1 fold, respectively.

B5: variant ICOSL IgV-Fc fusion N52M/N57W/Q100P (Fc fusion)
chain: DTQEKEVRAMVGSDVELSCACPEGSRFDLNDVYVYWQTSESKTVVTYHIPQMSSLEWVDSRYRNRALMSPAGMLRGDFSLRLFNVTPQDEQKFHCLVLSPSLGFQEVLSVEVTLHVAANFSVGSGGGGSEPKSSDKTHTCPPCPAPEAEGAPSVFLFPPKPKDTLMISRTPEVTCVVVDVSHEDPEVKFNWYVDGVEVHNAKTKPREEQYNSTYRVVSVLTVLHQDWLNGKEYKCKVSNKALPAPIEKTISKAKGQPREPQVYTLPPSREEMTKNQVSLTCLVKGFYPSDIAVEWESNGQPENNYKTTPPVLDSDGSFFLYSKLTVDKSRWQQGNVFSCSVMHEALHNHYTQKSLSLSPG
As to B5, the MFI was found to be 322000 MFI in test [1], 343000 MFI in test [2] and 168000 MFI in test [3]. Besides, the “MFI ratio to WT (ΔWT)” value in test [1] stood at 1.52 fold; in test [2], 1.04 fold; in test [3], 7.5 fold.

B6: variant ICOSL IgV-Fc fusion N52L/N57V (Fc fusion)
chain: DTQEKEVRAMVGSDVELSCACPEGSRFDLNDVYVYWQTSESKTVVTYHIPQLSSLEVVDSRYRNRALMSPAGMLRGDFSLRLFNVTPQDEQKFHCLVLSQSLGFQEVLSVEVTLHVAANFSVGSGGGGSEPKSSDKTHTCPPCPAPEAEGAPSVFLFPPKPKDTLMISRTPEVTCVVVDVSHEDPEVKFNWYVDGVEVHNAKTKPREEQYNSTYRVVSVLTVLHQDWLNGKEYKCKVSNKALPAPIEKTISKAKGQPREPQVYTLPPSREEMTKNQVSLTCLVKGFYPSDIAVEWESNGQPENNYKTTPPVLDSDGSFFLYSKLTVDKSRWQQGNVFSCSVMHEALHNHYTQKSLSLSPG
Turning to B6, the MFI in test [1] came to 257000 MFI; in test [2], 151000 MFI; in test [3], 54800 MFI. In addition, the “MFI ratio to WT (ΔWT)” value in test [1] was determined as 1.21 fold; in test [2], 0.46 fold; in test [3], 2.5 fold.

B7: variant ICOSL IgV-Fc fusion N52Q/N57F (Fc fusion)
chain: DTQEKEVRAMVGSDVELSCACPEGSRFDLNDVYVYWQTSESKTVVTYHIPQQSSLEFVDSRYRNRALMSPAGMLRGDFSLRLFNVTPQDEQKFHCLVLSQSLGFQEVLSVEVTLHVAANFSVGSGGGGSEPKSSDKTHTCPPCPAPEAEGAPSVFLFPPKPKDTLMISRTPEVTCVVVDVSHEDPEVKFNWYVDGVEVHNAKTKPREEQYNSTYRVVSVLTVLHQDWLNGKEYKCKVSNKALPAPIEKTISKAKGQPREPQVYTLPPSREEMTKNQVSLTCLVKGFYPSDIAVEWESNGQPENNYKTTPPVLDSDGSFFLYSKLTVDKSRWQQGNVFSCSVMHEALHNHYTQKSLSLSPG
As for B7, the MFI in test [1] worked out at 192000 MFI; in test [2] it was 367000 MFI; in test [3], 131000 MFI. Moreover, the “MFI ratio to WT (ΔWT)” value in test [1] was found to be 0.91 fold; in test [2], 1.11 fold; in test [3], 5.9 fold.

B8: variant ICOSL IgV-Fc fusion N52K/N57Y/Q100R (Fc fusion)
chain: DTQEKEVRAMVGSDVELSCACPEGSRFDLNDVYVYWQTSESKTVVTYHIPQKSSLEYVDSRYRNRALMSPAGMLRGDFSLRLFNVTPQDEQKFHCLVLSRSLGFQEVLSVEVTLHVAANFSVGSGGGGSEPKSSDKTHTCPPCPAPEAEGAPSVFLFPPKPKDTLMISRTPEVTCVVVDVSHEDPEVKFNWYVDGVEVHNAKTKPREEQYNSTYRVVSVLTVLHQDWLNGKEYKCKVSNKALPAPIEKTISKAKGQPREPQVYTLPPSREEMTKNQVSLTCLVKGFYPSDIAVEWESNGQPENNYKTTPPVLDSDGSFFLYSKLTVDKSRWQQGNVFSCSVMHEALHNHYTQKSLSLSPG
Take B8: the MFI in test [1] is 199000 MFI; in test [2], 233000 MFI; in test [3], 141000 MFI. In addition, the “MFI ratio to WT (ΔWT)” value turned out to be 0.94 fold in test [1], 0.71 fold in test [2] and 6.3 fold in test [3].

B9: variant ICOSL IgV-Fc fusion N52L/N57H/Q100R (Fc fusion)
chain: DTQEKEVRAMVGSDVELSCACPEGSRFDLNDVYVYWQTSESKTVVTYHIPQLSSLEHVDSRYRNRALMSPAGMLRGDFSLRLFNVTPQDEQKFHCLVLSRSLGFQEVLSVEVTLHVAANFSVGSGGGGSEPKSSDKTHTCPPCPAPEAEGAPSVFLFPPKPKDTLMISRTPEVTCVVVDVSHEDPEVKFNWYVDGVEVHNAKTKPREEQYNSTYRVVSVLTVLHQDWLNGKEYKCKVSNKALPAPIEKTISKAKGQPREPQVYTLPPSREEMTKNQVSLTCLVKGFYPSDIAVEWESNGQPENNYKTTPPVLDSDGSFFLYSKLTVDKSRWQQGNVFSCSVMHEALHNHYTQKSLSLSPG
On to B9, for which the MFI in test [1] came to 250000 MFI; in test [2] it was 353000 MFI; in test [3] it was 141000 MFI. Moreover, the “MFI ratio to WT (ΔWT)” value in test [1] stood at 1.18 fold; in test [2], 1.07 fold; in test [3], 6.3 fold.

B10: variant ICOSL IgV-Fc fusion N52C/N57E/Q100S (Fc fusion)
chain: DTQEKEVRAMVGSDVELSCACPEGSRFDLNDVYVYWQTSESKTVVTYHIPQCSSLEEVDSRYRNRALMSPAGMLRGDFSLRLFNVTPQDEQKFHCLVLSSSLGFQEVLSVEVTLHVAANFSVGSGGGGSEPKSSDKTHTCPPCPAPEAEGAPSVFLFPPKPKDTLMISRTPEVTCVVVDVSHEDPEVKFNWYVDGVEVHNAKTKPREEQYNSTYRVVSVLTVLHQDWLNGKEYKCKVSNKALPAPIEKTISKAKGQPREPQVYTLPPSREEMTKNQVSLTCLVKGFYPSDIAVEWESNGQPENNYKTTPPVLDSDGSFFLYSKLTVDKSRWQQGNVFSCSVMHEALHNHYTQKSLSLSPG
As to B10, the results for the MFI in test [1], in test [2] and in test [3] were 125000 MFI, 10600 MFI and 13400 MFI, respectively. The “MFI ratio to WT (ΔWT)” value in test [1] stood at 0.59 fold; in test [2], 0.03 fold; in test [3] it was 0.6 fold.

B11: variant ICOSL IgV-Fc fusion N52M/N57H/Q100S (Fc fusion)
chain: DTQEKEVRAMVGSDVELSCACPEGSRFDLNDVYVYWQTSESKTVVTYHIPQMSSLEHVDSRYRNRALMSPAGMLRGDFSLRLFNVTPQDEQKFHCLVLSSSLGFQEVLSVEVTLHVAANFSVGSGGGGSEPKSSDKTHTCPPCPAPEAEGAPSVFLFPPKPKDTLMISRTPEVTCVVVDVSHEDPEVKFNWYVDGVEVHNAKTKPREEQYNSTYRVVSVLTVLHQDWLNGKEYKCKVSNKALPAPIEKTISKAKGQPREPQVYTLPPSREEMTKNQVSLTCLVKGFYPSDIAVEWESNGQPENNYKTTPPVLDSDGSFFLYSKLTVDKSRWQQGNVFSCSVMHEALHNHYTQKSLSLSPG
For B11, the MFI in test [1] worked out at 266000 MFI; in test [2], 463000 MFI; in test [3] it was 115000 MFI. The “MFI ratio to WT (ΔWT)” value in test [1] came out at 1.25 fold; in test [2], 1.4 fold; in test [3], 5.1 fold.
